{"source": "the RNAGym collection of RNA variant scans (doi:10.1073/pnas.2313332121)", "parents": {"B1": {"name": "TPR t1 (parent)", "chain": "GACCAAUCUGCCCUCAGAGCUCGAGAACAUCUUCGGAUGCAGAGGAGGCAGGCUUCGGUGGCGCGAUAGCGCCAACGUCCUCAACCUCCAAUGCAUCCCACCACAUGAUGAUGCCUGAAGAGCCUUGGUUUUUUG"}}, "data": [{"variants_of": "B1", "assay": "polymerase ribozyme fitness, log enrichment relative to wild type (log ratio); higher = more active; in vitro selection for triplet polymerase activity", "in_short": "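PCR was used to build mutant libraries for each subunit of a heterodimeric triplet polymerase ribozyme, which were then transcribed. A single in vitro selection round, in triplicate, used a frozen incubation at −7 °C and recovered extended constructs by gel excision, streptavidin beads and RT-PCR. Fitness is the logarithm of genotype enrichment relative to wild-type enrichment, averaged over replicates with inverse-variance weights. The logarithm is base 2, and after Illumina sequencing only genotypes with ≥10 input reads and ≥1 read per output were kept.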", "values": [{"variant": "C64A U133A", "polymerase ribozyme fitness (log ratio)": -6.16}, {"variant": "G63C C88U", "polymerase ribozyme fitness (log ratio)": -1.29}, {"variant": "G63C C88A", "polymerase ribozyme fitness (log ratio)": -1.08}, {"variant": "G61U A119G", "polymerase ribozyme fitness (log ratio)": 1.3}, {"variant": "G61U C101A U125C", "polymerase ribozyme fitness (log ratio)": -4.61}, {"variant": "G63C A66U G77C A91C C94A", "polymerase ribozyme fitness (log ratio)": -6.25}, {"variant": "C62U U125A", "polymerase ribozyme fitness (log ratio)": -1.11}, {"variant": "C64U C86U G110U G122A", "polymerase ribozyme fitness (log ratio)": -4.18}, {"variant": "G63C G113U", "polymerase ribozyme fitness (log ratio)": -3.35}, {"variant": "G63C C79U G117U", "polymerase ribozyme fitness (log ratio)": -2.56}, {"variant": "C62A U78C G117A", "polymerase ribozyme fitness (log ratio)": -3.04}, {"variant": "C64U A103G", "polymerase ribozyme fitness (log ratio)": -4.77}, {"variant": "G63U C114A", "polymerase ribozyme fitness (log ratio)": -3.04}, {"variant": "G63U C114U", "polymerase ribozyme fitness (log ratio)": -3.25}, {"variant": "C62U U78C U106C", "polymerase ribozyme fitness (log ratio)": -0.597}, {"variant": "C62A G77C U87A", "polymerase ribozyme fitness (log ratio)": -1.71}, {"variant": "G61C C94U", "polymerase ribozyme fitness (log ratio)": -1.25}, {"variant": "G61C C94G", "polymerase ribozyme fitness (log ratio)": -2.92}, {"variant": "G63A C114U", "polymerase ribozyme fitness (log ratio)": -2.82}, {"variant": "G61U U81G C86U G120U", "polymerase ribozyme fitness (log ratio)": -2.64}, {"variant": "C64A U78C C123U", "polymerase ribozyme fitness (log ratio)": -4.49}, {"variant": "C62A C101A C114A", "polymerase ribozyme fitness (log ratio)": -3.81}, {"variant": "C64A C79U C102A A119G", "polymerase ribozyme fitness (log ratio)": -7.09}, {"variant": "C64U C115A U125A", "polymerase ribozyme fitness (log ratio)": -0.872}, {"variant": "G61U C86A A103C", "polymerase ribozyme fitness (log ratio)": -5.4}, {"variant": "C64A C88G", "polymerase ribozyme fitness (log ratio)": -6.08}, {"variant": "G63U C85U U130A", "polymerase ribozyme fitness (log ratio)": -2.02}, {"variant": "C62U U133G", "polymerase ribozyme fitness (log ratio)": -1.15}, {"variant": "C62U C80U C97U", "polymerase ribozyme fitness (log ratio)": -0.921}, {"variant": "G61U C82A G107A", "polymerase ribozyme fitness (log ratio)": -5.28}, {"variant": "G63U C88A", "polymerase ribozyme fitness (log ratio)": -1.89}, {"variant": "C62A U81A G93A", "polymerase ribozyme fitness (log ratio)": -2.69}, {"variant": "G63A U131G G135U", "polymerase ribozyme fitness (log ratio)": -0.787}, {"variant": "C62U C88G C114G", "polymerase ribozyme fitness (log ratio)": -3.23}, {"variant": "C64G U112A U126C", "polymerase ribozyme fitness (log ratio)": -5.9}, {"variant": "G61U C104U", "polymerase ribozyme fitness (log ratio)": 0.264}, {"variant": "C62U C104G", "polymerase ribozyme fitness (log ratio)": -7}, {"variant": "G63A G93A", "polymerase ribozyme fitness (log ratio)": -1.38}, {"variant": "G61C C73U C85U G117A U129C", "polymerase ribozyme fitness (log ratio)": -5.49}, {"variant": "G61U U133G", "polymerase ribozyme fitness (log ratio)": -0.566}, {"variant": "G61U C82G A91C U112C", "polymerase ribozyme fitness (log ratio)": 0.876}, {"variant": "G61U C89A", "polymerase ribozyme fitness (log ratio)": -1.5}, {"variant": "C62U C97G U132A", "polymerase ribozyme fitness (log ratio)": -3.9}, {"variant": "G61U C102U", "polymerase ribozyme fitness (log ratio)": -1.65}, {"variant": "G61U U78C C89G", "polymerase ribozyme fitness (log ratio)": -1.23}, {"variant": "C62G G93C G120A U125G U131G", "polymerase ribozyme fitness (log ratio)": -3.65}, {"variant": "C62A C101A G113A", "polymerase ribozyme fitness (log ratio)": -2.77}, {"variant": "C62G A83U U96A", "polymerase ribozyme fitness (log ratio)": -4.56}, {"variant": "G61U A95U", "polymerase ribozyme fitness (log ratio)": -0.221}, {"variant": "G63U C70A G127C", "polymerase ribozyme fitness (log ratio)": -0.596}, {"variant": "G63U C89A G113A G120C U129G", "polymerase ribozyme fitness (log ratio)": -5.25}, {"variant": "C64G U78C C115A", "polymerase ribozyme fitness (log ratio)": -5.99}, {"variant": "C62A A95U", "polymerase ribozyme fitness (log ratio)": -1.55}, {"variant": "C62G A83U A84U", "polymerase ribozyme fitness (log ratio)": -2.65}, {"variant": "C62U C70G C72U G120U", "polymerase ribozyme fitness (log ratio)": -2.44}, {"variant": "C64A C73G", "polymerase ribozyme fitness (log ratio)": -6.34}, {"variant": "C64A U78G", "polymerase ribozyme fitness (log ratio)": -6.68}, {"variant": "C64A U78C", "polymerase ribozyme fitness (log ratio)": -6.04}, {"variant": "C62U A111C", "polymerase ribozyme fitness (log ratio)": 0.533}, {"variant": "G61C C98U C123G U133A G135U", "polymerase ribozyme fitness (log ratio)": -1.22}, {"variant": "C62A C72G U112G", "polymerase ribozyme fitness (log ratio)": -1.95}, {"variant": "C62U G120A", "polymerase ribozyme fitness (log ratio)": 1.09}, {"variant": "C64G C89U C123U", "polymerase ribozyme fitness (log ratio)": -5.79}, {"variant": "C64U C114U U125A", "polymerase ribozyme fitness (log ratio)": -2.95}, {"variant": "G61C C89G G113U U133C", "polymerase ribozyme fitness (log ratio)": -4.45}, {"variant": "G61U A118G", "polymerase ribozyme fitness (log ratio)": 0.1}, {"variant": "G63C C85G U130G", "polymerase ribozyme fitness (log ratio)": -1.36}, {"variant": "G63U G120U G135U", "polymerase ribozyme fitness (log ratio)": -2.56}, {"variant": "C62A U109G G110U", "polymerase ribozyme fitness (log ratio)": -4.7}, {"variant": "C62A C101U", "polymerase ribozyme fitness (log ratio)": -2.3}, {"variant": "C62A C101A", "polymerase ribozyme fitness (log ratio)": -2.84}, {"variant": "G63A U78C A83G C88G", "polymerase ribozyme fitness (log ratio)": -3}, {"variant": "C62A A66U", "polymerase ribozyme fitness (log ratio)": -3.17}, {"variant": "G63U G77U U78C", "polymerase ribozyme fitness (log ratio)": -2.41}, {"variant": "C62A G93U C101G", "polymerase ribozyme fitness (log ratio)": -5.19}, {"variant": "C62A G120C", "polymerase ribozyme fitness (log ratio)": -0.534}, {"variant": "C62U U129G", "polymerase ribozyme fitness (log ratio)": -1.28}, {"variant": "C62U U129C", "polymerase ribozyme fitness (log ratio)": 0.0239}, {"variant": "G61C G110U", "polymerase ribozyme fitness (log ratio)": -3.71}, {"variant": "G63U G77C C86G", "polymerase ribozyme fitness (log ratio)": -4.32}, {"variant": "G63C G93U", "polymerase ribozyme fitness (log ratio)": -1.7}, {"variant": "C62G G122U", "polymerase ribozyme fitness (log ratio)": -1.08}, {"variant": "C62G C76G U112A", "polymerase ribozyme fitness (log ratio)": -3.99}, {"variant": "G61C U125G", "polymerase ribozyme fitness (log ratio)": -1.95}]}]}
